T1: BCMA (Homo sapiens (Human), UniProt Q02223 1-54, limits assumed)
T1 sequence: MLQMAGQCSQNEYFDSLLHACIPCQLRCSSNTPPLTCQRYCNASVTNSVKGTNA


Molecular target: T1, BCMA
Assay: ELISA, format not described
Design: unit not given here

ELISA_avg	Binder
14.2	D-domain SEQ ID NO: 321 (designed binder) MGSWFTFKQNLAWIKLHLEALGGSEAELARFEYYIADFENKLQLYKGKGNPEVEALRKEAAAIRDELQAYRHN
3.03	D-domain SEQ ID NO: 316 (designed binder) MGSWLDFKEGLADIKRSLEALGGSEAELADFEGVIALFEWKLQTYKGKGNPEVEALRKEAAAIRDELQAYRHN
13.7	D-domain SEQ ID NO: 328 (designed binder) MGSWQSFKHALADIKINLEALGGSEAELAQFEYAIAVFEYRLQAYKGKGNPEVEALRKEAAAIRDELQAYRHN
6.76	D-domain SEQ ID NO: 329 (designed binder) MGSWHTFKEALAQIKGELEALGGSEAELASFEYAIAVFEYRLQMYKGKGNPEVEALRKEAAAIRDELQAYRHN
18.7	D-domain SEQ ID NO: 49 (designed binder) MGSWTEFAWRLQAIHQRLQALGGSEAELAAFEKEIAAFESELQAYKGKGNPEVEELRVYAAKIRISLQAYRHN
9.66	D-domain SEQ ID NO: 46 (designed binder) MGSWREFAWRLVAINSRLKALGGSEAELAAFEKEIAAFESELQAYKGKGNPEVEELRHYAASIRDGLQAYRHN
18.3	D-domain SEQ ID NO: 48 (designed binder) MGSWNEFAWRLTAIEQRLMALGGSEAELAAFEKEIAAFESELQAYKGKGNPEVEELRHYAAGIRDNLQAYRHN
17.1	D-domain SEQ ID NO: 45 (designed binder) MGSWHEFTWRLIAIQQRLEALGGSEAELAAFEKEIAAFESELQAYKGKGNPEVEELRAYAAGIRHHLQAYRHN
9.49	D-domain SEQ ID NO: 44 (designed binder) MGSWYEFSWRLQAIHQRLNALGGSEAELAAFEKEIAAFESELQAYKGKGNPEVEELRAYAAGIRGALQAYRHN
19.5	D-domain SEQ ID NO: 51 (designed binder) MGSWHEFTWRLVAIQQRLQALGGSEAELAAFEKEIAAFESELQAYKGKGNPEVEELRKFAAKIRYELQAYRHN
19	D-domain SEQ ID NO: 50 (designed binder) MGSWIEFAWRLQAIHQRLDALGGSEAELAAFEKEIAAFESELQAYKGKGNPEVEDLREYAANIRDSLQAYRHN
13.1	D-domain SEQ ID NO: 47 (designed binder) MGSWHEFAWRLQAINQRLNALGGSEAELAAFEKEIAAFESELQAYKGKGNPEVEELRHYAAHIRNGLQAYRHN
14.7	D-domain SEQ ID NO: 322 (designed binder) MGSWREFKYGLAHIKRVLEALGGSEAELAVFEYYIAKFEQELQEYKGKGNPEVEALRKEAAAIRDELQAYRHN
15.8	D-domain SEQ ID NO: 324 (designed binder) MGSWVEFKHNLAWIKVTLEALGGSEAELAVFEYYIAQFEEQLQEYKGKGNPEVEALRKEAAAIRDELQAYRHN
8.36	D-domain SEQ ID NO: 323 (designed binder) MGSWIQFKYGLAHIKRTLEALGGSEAELAVFEWYIADFEQQLQGYKGKGNPEVEALRKEAAAIRDELQAYRHN
9.33	D-domain SEQ ID NO: 317 (designed binder) MGSWEVFKHELAVIKDYLEALGGSEAELAHFEWGIAWFEGFLQDYKGKGNPEVEALRKEAAAIRDELQAYRHN
10.6	D-domain SEQ ID NO: 333 (designed binder) MGSWQFFKEHLASIKFWLEALGGSEAELAFFEDAIADFEYHLQNYKGKGNPEVEALRKEAAAIRDELQAYRHN
6.6	D-domain SEQ ID NO: 334 (designed binder) MGSWTYFKEHLASIKFWLEALGGSEAELAFFEDAIAEFEKDLQYYKGKGNPEVEALRKEAAAIRDELQAYRHN
10.6	D-domain SEQ ID NO: 318 (designed binder) MGSWIVFKQSLAWIKEHLEALGGSEAELAEFEFYIANFEHTLQNYKGKGNPEVEALRKEAAAIRDELQAYRHN
3.2	D-domain SEQ ID NO: 319 (designed binder) MGSWIYFKDSLAYIKKYLEALGGSEAELATFEYYIANFEHELQYYKGKGNPEVEALRKEAAAIRDELQAYRHN
12.3	D-domain SEQ ID NO: 331 (designed binder) MGSWTNFKEGLAEIKRDLEALGGSEAELARFEYVIAVFEFRLQNYKGKGNPEVEALRKEAAAIRDELQAYRHN
7.69	D-domain SEQ ID NO: 336 (designed binder) MGSWYLFQSHLAHIKHHLEALGGSEAELAWFEFTIAGFEQELQHYKGKGNPEVEALRKEAAAIRDELQAYRHN
18.8	D-domain SEQ ID NO: 330 (designed binder) MGSWTDFKTSLADIKAELEALGGSEAELAKFEYYIAIFEYRLQEYKGKGNPEVEALRKEAAAIRDELQAYRHN

ELISA_avg	Binder
10.7	D-domain SEQ ID NO: 332 (designed binder) MGSWHTFKDGLAEIKSELEALGGSEAELAMFEYVIAIFEYRLQNYKGKGNPEVEALRKEAAAIRDELQAYRHN
10.7	D-domain SEQ ID NO: 339 (designed binder) MGSWYGFKWYLATIKKHLEALGGSEAELALFETEIATFELWLQDYKGKGNPEVEALRKEAAAIRDELQAYRHN
7.16	D-domain SEQ ID NO: 325 (designed binder) MGSWISFKDNLAMIKEFLEALGGSEAELAVFEWYIATFEVELQDYKGKGNPEVEALRKEAAAIRDELQAYRHN
3.47	D-domain SEQ ID NO: 326 (designed binder) MGSWHIFKDNLATIKAFLEALGGSEAELAVFEWYIAKFEEELQGYKGKGNPEVEALRKEAAAIRDELQAYRHN
9.81	D-domain SEQ ID NO: 320 (designed binder) MGSWDHFKYNLAWIKKYLEALGGSEAELATFEWYIANFEKRLQDYKGKGNPEVEALRKEAAAIRDELQAYRHN
13.4	D-domain SEQ ID NO: 315 (designed binder) MGSWAYFKYGLAVIKLHLEALGGSEAELADFERYIAEFEYELQAYKGKGNPEVEALRKEAAAIRDELQAYRHN
17.8	D-domain SEQ ID NO: 338 (designed binder) MGSWTTLKWRLAHIKQHLEALGGSEAELALFEYDIAHFEELLQYYKGKGNPEVEALRKEAAAIRDELQAYRHN
5.18	D-domain SEQ ID NO: 335 (designed binder) MGSWIIFKGYLAHIKHHLEALGGSEAELADFEFYIAIFEMELQKYKGKGNPEVEALRKEAAAIRDELQAYRHN
9.77	D-domain SEQ ID NO: 327 (designed binder) MGSWTSFKHGLAGIKRVLEALGGSEAELATFEWYIAQFERHLQAYKGKGNPEVEALRKEAAAIRDELQAYRHN
4.05	D-domain SEQ ID NO: 337 (designed binder) MGSWYSFKWTLARIKLELEALGGSEAELAYFENVIAHFEMELQSYKGKGNPEVEALRKEAAAIRDELQAYRHN
14	D-domain SEQ ID NO: 302 (designed binder) MGSWGYFKYGLATIKHRLEALGGSEAELADFELWIAKFEEQLQVYKGKGNPEVEALRKEAAAIRDELQAYRHN
18.5	D-domain SEQ ID NO: 313 (designed binder) MGSWGYFKHGLAHIKSSLEALGGSEAELADFEVWIAAFENELQEYKGKGNPEVEALRKEAAAIRDELQAYRHN
15.8	D-domain SEQ ID NO: 311 (designed binder) MGSWDYFKYGLALIKIKLEALGGSEAELADFEVWIAQFEMALQVYKGKGNPEVEALRKEAAAIRDELQAYRHN
10.3	D-domain SEQ ID NO: 306 (designed binder) MGSWQYFKYGLAIIKIKLEALGGSEAELADFEAWIATFEKQLQHYKGKGNPEVEALRKEAAAIRDELQAYRHN
21.4	D-domain SEQ ID NO: 307 (designed binder) MGSWVYFKHGLAVIKMRLEALGGSEAELADFETWIAQFEMTLQEYKGKGNPEVEALRKEAAAIRDELQAYRHN
19.9	D-domain SEQ ID NO: 305 (designed binder) MGSWHYFKNGLAIIKEKLEALGGSEAELADFEIWIAMFEMELQEYKGKGNPEVEALRKEAAAIRDELQAYRHN
12.8	D-domain SEQ ID NO: 314 (designed binder) MGSWGYFKTGLAIIKAQLEALGGSEAELADFELWIAQFEETLQFYKGKGNPEVEALRKEAAAIRDELQAYRHN
18.4	D-domain SEQ ID NO: 303 (designed binder) MGSWEYFKYGLATIKMHLEALGGSEAELADFEHWIAHFEHQLQMYKGKGNPEVEALRKEAAAIRDELQAYRHN
3.84	D-domain SEQ ID NO: 309 (designed binder) MGSWYYFKYGLAVIKGKLEALGGSEAELADFETWIAKFENHLQSYKGKGNPEVEALRKEAAAIRDELQAYRHN
15.2	D-domain SEQ ID NO: 310 (designed binder) MGSWTYFKYGLALIKYRLEALGGSEAELADFEEWIAQFEVSLQHYKGKGNPEVEALRKEAAAIRDELQAYRHN
17.6	D-domain SEQ ID NO: 308 (designed binder) MGSWVYFKYGLAVIKEKLEALGGSEAELADFETWIAEFEFGLQQYKGKGNPEVEALRKEAAAIRDELQAYRHN
17	D-domain SEQ ID NO: 312 (designed binder) MGSWTYFKFGLAHIKDSLEALGGSEAELADFEQWIAMFEQDLQVYKGKGNPEVEALRKEAAAIRDELQAYRHN

Reference: patent US20250026849A1 (ARCELLX, published 2025)
